According to paper PMC11874374:

Assays:
[1] = target: histidine-tagged JAM-A (human) (UniProt Q9Y624); assay: non-reducing gel electrophoresis
[2] = target: recombinant human JAM-A (Junctional Adhesion Molecule-A) (human) (UniProt Q9Y624); assay: non-reducing gel electrophoresis

Row | Substance | stoichiometry N [1] | stoichiometry N [2]
1 | histidine-tagged JAM-A (from UniProt Q9Y624 28-299) (natural protein) | 2 | –
2 | recombinant human JAM-A (Junctional Adhesion Molecule-A) (from UniProt Q9Y624 28-299) (natural protein) | – | 3
